The values that follow come from publication PMC8726603.

This test deals with SUMO-tagged CGAS (human) (UniProt Q8N884). Kind of test: SPR.
Sequence of UniProt Q8N884 (Q8N884 whole entry): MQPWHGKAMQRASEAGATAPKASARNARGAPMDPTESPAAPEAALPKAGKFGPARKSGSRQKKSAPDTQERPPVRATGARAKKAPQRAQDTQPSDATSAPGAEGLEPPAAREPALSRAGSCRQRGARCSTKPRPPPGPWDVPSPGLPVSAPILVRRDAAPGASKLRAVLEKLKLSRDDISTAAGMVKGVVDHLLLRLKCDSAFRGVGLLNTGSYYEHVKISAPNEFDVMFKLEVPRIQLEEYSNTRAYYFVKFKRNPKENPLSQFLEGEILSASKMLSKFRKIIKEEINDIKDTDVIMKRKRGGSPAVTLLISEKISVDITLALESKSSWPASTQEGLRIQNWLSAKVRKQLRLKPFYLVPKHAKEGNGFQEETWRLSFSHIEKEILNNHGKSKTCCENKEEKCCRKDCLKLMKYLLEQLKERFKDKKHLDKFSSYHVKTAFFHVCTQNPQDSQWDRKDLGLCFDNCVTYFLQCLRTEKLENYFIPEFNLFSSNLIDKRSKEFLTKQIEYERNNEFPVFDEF

The substance “His-tagged LC3B (from UniProt Q9GZQ8 1-120) (natural protein; other documents disagree on this pair)” had a Kd of 0.17 µM.
